The results in this text go back to paper PMC8473191.

By stoichiometry N is commonly meant the number of molecules, sites or subunits per partner or assembly.

For assay [1], the target named is mMH1_02TE, H1 hemagglutinin ectodomain (A/Hawaii/70/2019) with cleavable foldon and histidine tag (influenza A virus A/Hawaii/70/2019 (H1) | not stated). Description: SEC-MALS. (In gel filtration, larger molecules generally elute earlier.)
Assay [2] deals with mMH3_02TE, H3 hemagglutinin ectodomain (A/Hong Kong/45/2019) with cleavable foldon and histidine tag (influenza A virus A/Hong Kong/45/2019 (H3) | not stated). Description: SEC-MALS.

For “mMH1_02TE, H1 hemagglutinin ectodomain (A/Hawaii/70/2019) with cleavable foldon and histidine tag (domain or fragment)”, the stoichiometry N in assay [1] is 3.
In turn, “mMH3_02TE, H3 hemagglutinin ectodomain (A/Hong Kong/45/2019) with cleavable foldon and histidine tag (domain or fragment)” returned a stoichiometry N in assay [2] of 3.
